The values below come from publication PMC12947556.

Where only a bound is given, the exact number is not on record here.

In experiment [1] the target is ([H3K4me3K27me3]2) homotypic nucleosome. In words: Captify Luminex bead-based binding assay; GST-PtSHL titrated to a multiplex panel of PTM-defined homotypic and heterotypic nucleosomes; median fluorescence intensity; EC50^rel.
The target in experiment [2] is ([H3.2]·[H3.2K4me3K27me3]) heterotypic nucleosome (UniProt Q71DI3). Described as above.

GST-PtSHL BAH-PHD (domain or fragment) showed a fold preference over nucleosomes with each comprising PTM in experiment [1] of over 150 fold. This substance also showed a fold preference over ([H3.2K4me3]·[H3.2K27me3]) or its comprising PTMs in experiment [2] of over 350 fold.
